B1: TPR t1 (parent)
chain: GACCAAUCUGCCCUCAGAGCUCGAGAACAUCUUCGGAUGCAGAGGAGGCAGGCUUCGGUGGCGCGAUAGCGCCAACGUCCUCAACCUCCAAUGCAUCCCACCACAUGAUGAUGCCUGAAGAGCCUUGGUUUUUUG

Variants of: B1
Assay: polymerase ribozyme fitness, log enrichment relative to wild type (log ratio); higher = more active; in vitro selection for triplet polymerase activity
How it was run: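 One round of in vitro selection, in triplicate, was applied to PCR-built, transcribed mutant libraries of each subunit of a heterodimeric triplet polymerase ribozyme. The steps were annealing with a biotinylated primer, partner subunit and triplets, incubation frozen at −7 °C, gel excision of extended constructs, streptavidin-bead capture and RT-PCR. Fitness is the logarithm, base 2, of genotype enrichment over wild-type enrichment from inverse-variance-weighted replicate averages of Illumina-sequenced inputs and outputs, keeping genotypes with ≥10 input reads and ≥1 read per output.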
For GACCAAUCUGCCCUCAGAGCUCGAGAACAUCUUCGGAUGCAGAGGAGGCCGGCUUCGGUGUCGCGAUAGCGCCAACGUCCUCAACCUCCAAUGCAUCCCACCACAUGAUGAUGCCUGAAGAGCCUUGGUUUUUUG, the “polymerase ribozyme fitness (log ratio)” value was -0.0844. For GACCAAUCUGCCCUCAGAGCUCGAGAACAUCUUCGGAUGCAGAGGAGGCCGGCUUCGCUGGCGCGAUAGCGCCAACGUCCUCAACCUCCAAUGCAUCUCACCACAUGAUGAUGCCUGAAGAGGCUUGGUUUUUUG, the “polymerase ribozyme fitness (log ratio)” value was 0.72. In the case of GACCAAUCUGCCCUCAGAGCUCGAGAACAUCUUCGGAUGCAGAGGAGGCGGGCUUCGGUGGCGCGAUAUCGCCAACGUCCUCAACGUCCAAUGCAUCCCACCACAUGAUGAUGCCUGAAGAGCCUUGGUUUUUUG, the “polymerase ribozyme fitness (log ratio)” value is reported as -0.754. With GACCAAUCUGCCCUCAGAGCUCGAGAACAUCUUCGGAUGCAGAGGAGGCCGGCUUCGGUGGAGCGAUAGCGCCAACGUCCUCAACCUCCAAUGCAUCCCACCACAAGAUGGUGUCUGAAGAGACUUGGUUUUUUG the “polymerase ribozyme fitness (log ratio)” value was -5.42. With GACCAAUCUGCCCUCAGAGCUCGAGAACAUCUUCGGAUGCAGAGGAGGCGGGCUUCGGUGGCGUGAUAGCGCCAACGUCCUCAUCCUCCAAUGCAUCCCACCACAUGAUGAUGCCUGAAGAGCCUUGGUUUUUUG the “polymerase ribozyme fitness (log ratio)” value was -0.379. In the case of GACCAAUCUGCCCUCAGAGCUCGAGAACAUCUUCGGAUGCAGAGGAGGCGGGCUUCGGUGGCUCGAUAGCGCCAACGUCCUCAACCUCCAAUGCAUCCCAGCACAUGAUGAUGCCUGAACAGCCUUGGUGUUUUG, the “polymerase ribozyme fitness (log ratio)” value is reported as -3.55. With GACCAAUCUGCCCUCAGAGCUCGAGAACAUCUUCGGAUGCAGAGGAGGCCGGCUUCGGUGGCGCGAUAGAGCCAACGUCCUCAACCUCCAAUGCAUCCCACCACAUGAUGAUGCCUGAAGAGCCUUGGUUUUUUG the “polymerase ribozyme fitness (log ratio)” value was -2.58. With GACCAAUCUGCCCUCAGAGCUCGAGAACAUCUUCGGAUGCAGAGGAGGCCGGCUUCGGUGGCGCGAUAGCGCCAACGUCCUCAACCUCCAAUGCAUCCCACCACAUGAUGAUGCCAGAAGAGCCUUGGUUAUUUG the “polymerase ribozyme fitness (log ratio)” value was -3.32. For GACCAAUCUGCCCUCAGAGCUCGAGAACAUCUUCGGAUGCAGAGGAGGCCGGCUUCGGUGGCGCGAUAACGCCAACGCCCUCAACCUCCAAUGCAUUCCACCACAUGAUGAUGCCUGAAGAGCCUUGGUUUUUUG, the “polymerase ribozyme fitness (log ratio)” value was -4.07. For GACCAAUCUGCCCUCAGAGCUCGAGAACAUCUUCGGAUGCAGAGGAGGCGGGCUUCGGUGGCGCGAUAGCGCCAUCGUCUACAACCUCCAAUGCAUCCCACCACAUGAUGAUGUCUGAAGAGCCUUGGUUUUCUG, the “polymerase ribozyme fitness (log ratio)” value was -4.62. For GACCAAUCUGCCCUCAGAGCUCGAGAACAUCUUCGGAUGCAGAGGAGGCCGGCUUCGGUGGCGCGAUAGCGCCAACGUCCUCAACCUACAAUGCAUCCCACCACAUGAUGAUGCCUGAAGAGCCUUGGUCUUAUG, the “polymerase ribozyme fitness (log ratio)” value was -0.495. With GACCAAUCUGCCCUCAGAGCUCGAGAACAUCUUCGGAUGCAGAGGAGGCGGGCUUCGGUGGCGCGAUAGCGCAAACGUCCUCAACCUCCAAUGCAUCCCACCACAGGAUGAUGCCUGAAGAGCCUUGGUUUUUUG the “polymerase ribozyme fitness (log ratio)” value was -1.39. For GACCAAUCUGCCCUCAGAGCUCGAGAACAUCUUCGGAUGCAGAGGAGGCGGGCUUCGGUGGCGUGAUAGCGCCAACGUCCUCAACCUCCAAUGCAUCCCACCACAUGAUGAUGCCUGAAGAGCCUUGGUUUUUUG, the “polymerase ribozyme fitness (log ratio)” value was 0.0869. With GACCAAUCUGCCCUCAGAGCUCGAGAACAUCUUCGGAUGCAGAGGAGGCGUGCUUCGGUGGCGCGAUAGCGCCAACGUCCUCAACCUCAAAUGCAUCCCACCACAUGAUGAUGCCUGAAGAGCUUUGGUUUUUUG the “polymerase ribozyme fitness (log ratio)” value was -4.23. With GACCAAUCUGCCCUCAGAGCUCGAGAACAUCUUCGGAUGCAGAGGAGGCGGGCUUCGGUGGCUCGGUAGCGCCAACGUCCUCAACCUCCAAUGCAUCCCACCACAUGAUGAUGCCUGAAGAGCCUUGGUAUUUUG the “polymerase ribozyme fitness (log ratio)” value was -4.03. With GACCAAUCUGCCCUCAGAGCUCGAGAACAUCUUCGGAUGCAGAGGAGGCCGGCUUCGGUGGCGCGAUAGCGCCAACGUCCUCAACCUCCAAUGCAUCCCACCACAUGAUGAUGCCCGAAGAGCCUUGGUUUUUUG the “polymerase ribozyme fitness (log ratio)” value was -1.32. For GACCAAUCUGCCCUCAGAGCUCGAGAACAUCUUCGGAUGCAGAGGAGGCCGGCUUCGGUGGCGCGAUAGCGCCAACGUCCUCAACCUCCAAUGCAUCCCACCACAUGAUGAUGCCUGAAGAGACUUGGUUUUUUG, the “polymerase ribozyme fitness (log ratio)” value was -0.166. With GACCAAUCUGCCCUCAGAGCUCGAGAACAUCUUCGGAUGCAGAGGAGGCCGGCUUCUGUGGCGCGAUAGCGCCAACGUCCUCAACCUCCAAUGCAUCCCACCACAUGAUGAUUCCUGAAGAGCCUUGGUUUUUUG the “polymerase ribozyme fitness (log ratio)” value was -4.25. With GACCAAUCUGCCCUCAGAGCUCGAGAACAUCUUCGGAUGCAGAGGAGGCGGGCUUCGGUGGCGCGAUAGCGCCAACGUCCUCAAGCUCCAAUGCAUCCCACCACAUGAUGAUGCCUGAAGAGCCUUGGUUUUUUG the “polymerase ribozyme fitness (log ratio)” value was -0.79. In the case of GACCAAUCUGCCCUCAGAGCUCGAGAACAUCUUCGGAUGCAGAGGAGGCGGCCUUCGGUGGCGCGAUAGCUCCAACGUACUCAACCUCCAAUGCAUCCCACCACAUGAUUAUGCCUGAAGAGCCUUGGUUUUUUG, the “polymerase ribozyme fitness (log ratio)” value is reported as -4.97. In the case of GACCAAUCUGCCCUCAGAGCUCGAGAACAUCUUCGGAUGCAGAGGAGGCCGGCUUCGGUGGCGCGAUAGCGCCAACGUCCUCAACCUCCAAUGCAUCCCACCACAUGAUGAUGCCUUAAGAGCCUUGGUUUUUUG, the “polymerase ribozyme fitness (log ratio)” value is reported as -2.95. With GACCAAUCUGCCCUCAGAGCUCGAGAACAUCUUCGGAUGCAGAGGAGGCGGGCUUCUGUGGCGCGAUAGCGCCAACGUACUCAACCUCCAAUGCAUCCCACCACAUGAUGAUGCAUGAAGAGCCUUGGUUUUUUG the “polymerase ribozyme fitness (log ratio)” value was -1.84. In the case of GACCAAUCUGCCCUCAGAGCUCGAGAACAUCUUCGGAUGCAGAGGAGGCCGGCUUCGGUGGCGCGAUAGCGCCAACGUCCUCAACCUCCAAUGCAUCCCACCACAUGAUGAUGCCUGAAGAGCAUUGGUUUUUUG, the “polymerase ribozyme fitness (log ratio)” value is reported as 0.557. For GACCAAUCUGCCCUCAGAGCUCGAGAACAUCUUCGGAUGCAGAGGAGGCCGGCUUCGGUGGCGCGAUAGCGCCAACGUCCUCAACCUCCAAGGCAUCCCACCACAUGAUGAAGCCUGAAGAGCCUUGGUUUUUUA, the “polymerase ribozyme fitness (log ratio)” value was -3.14. For GACCAAUCUGCCCUCAGAGCUCGAGAACAUCUUCGGAUGCAGAGGAGGCGGACUUCGGUGGCGCGAUAGCGCCAACGUCCUCAACCUCCAAUGCAUCCCACCACAUGAUGAUGCCUGAAGAGCCUUGGUUUUUUG, the “polymerase ribozyme fitness (log ratio)” value was 0.186. In the case of GACCAAUCUGCCCUCAGAGCUCGAGAACAUCUUCGGAUGCAGAGGAGGCGGGCUUCGGUGGCGCGAUAGCACCAACGUCCUCAACCUCCAAUGCAUCCCACCACAUGAUGAUGCCUGAAGAGCCUUGGUUUUUUG, the “polymerase ribozyme fitness (log ratio)” value is reported as -1.41. For GACCAAUCUGCCCUCAGAGCUCGAGAACAUCUUCGGAUGCAGAGGAGGCCGGCUUCGGUGGCGCGAUAGCGUCAACUUCCUCAACCUCCAAUGCAUCCAACCACAUGAUGAUGCCAGAACAGUCUUGGUUUUUUG, the “polymerase ribozyme fitness (log ratio)” value was -8.09. With GACCAAUCUGCCCUCAGAGCUCGAGAACAUCUUCGGAUGCAGAGGAGGCGGGCUUGGGUGGCGCGAUAGCGCCAACGUCCUCAACCUCCAAUGCAUCCCACCCCAUGAUGAUGCGUGAAGAGCCUUGGUUUUUUG the “polymerase ribozyme fitness (log ratio)” value was -5.53. With GACCAAUCUGCCCUCAGAGCUCGAGAACAUCUUCGGAUGCAGAGGAGGCGGGCUUCGGUGGCGCGAUAGCGCCAACGUCCUCAACCUCCAAUGCAUCCCACCACAUGAUGAUGCCUGAAGAGACUUGGUUUUUUG the “polymerase ribozyme fitness (log ratio)” value was 0.295. With GACCAAUCUGCCCUCAGAGCUCGAGAACAUCUUCGGAUGCAGAGGAGGCCGGCUUCGGUGGCGCGAUAGUGCCAACGUCCUCAACCUCCAAUGCAUCCCACCACUUGAUGAUGCCUGAAGAGCCUUGGUUUUUUG the “polymerase ribozyme fitness (log ratio)” value was -3.71. With GACCAAUCUGCCCUCAGAGCUCGAGAACAUCUUCGGAUGCAGAGGAGGCGGGCUUCGGUGGCGCGAUAGCGCCAACGUGCUCAACCGCCAAUGCAUCCCACCACAUGAUGAUGCCUGAAGAGCCUUGGUUUUUUG the “polymerase ribozyme fitness (log ratio)” value was -0.314. In the case of GACCAAUCUGCCCUCAGAGCUCGAGAACAUCUUCGGAUGCAGAGGAGGCGGGCUUCGGUGGCGCGAUAGCGCCAACGUCCUCAACCUCCAAUGCAUCCCACCACCUGAUGAUGCCUGAAGAGCCUUGGUUUUUUG, the “polymerase ribozyme fitness (log ratio)” value is reported as -2.43. With GACCAAUCUGCCCUCAGAGCUCGAGAACAUCUUCGGAUGCAGAGGAGGCGAGCUUCGGUGGCGCGAUAGCGCCAACGUCCUCAACCUCCAAUGCAUCCCACCACAUGAUGAUGCCUGAAGAGCCUUGGUUUUUUG the “polymerase ribozyme fitness (log ratio)” value was -1.11. In the case of GACCAAUCUGCCCUCAGAGCUCGAGAACAUCUUCGGAUGCAGAGGAGGCGGGCUUCGGUGGCGCGGUAGCGCUAACGUCCUCAACAUCCAAUGCAUCCCACCACAUGAUGAUGCGUGAAGAGCCUUGGUUUUUUG, the “polymerase ribozyme fitness (log ratio)” value is reported as -4.26. In the case of GACCAAUCUGCCCUCAGAGCUCGAGAACAUCUUCGGAUGCAGAGGAGGCCGCCUUGGGUGGCACGAUAGCGCCAACUUCCUCAACCUCCAAUGCAUCCCACCACAUGAUGAUGCCUGAAGAGCCUUGGUUUUUUG, the “polymerase ribozyme fitness (log ratio)” value is reported as -6.51. In the case of GACCAAUCUGCCCUCAGAGCUCGAGAACAUCUUCGGAUGCAGAGGAGGCGGGCUUCGGUGGCGCGAUAGCGCCAACGUCCUCAACCUCAAAUGCAUCCCACCACAUGAUGAUGCCUGAAGAGCCUUGGUUUUUUG, the “polymerase ribozyme fitness (log ratio)” value is reported as -1.48. In the case of GACCAAUCUGCCCUCAGAGCUCGAGAACAUCUUCGGAUGCAGAGGAGGCGGGCUUCGGUGGCGCGAUAGCGCCAACGUCGUCGACCUCCAAUGCAUCCCACCACAUGAUGAUGCCUGAACAGCCUUGGUUUUUUG, the “polymerase ribozyme fitness (log ratio)” value is reported as -6.33. For GACCAAUCUGCCCUCAGAGCUCGAGAACAUCUUCGGAUGCAGAGGAGGCGGGCUUCGGUGGCGCGAUAGCGCCAACGUCCUAAACCUCCAAUGCAUCCCACCACAUGAUGAUGCCUGAAUAGCCUUGGUUUUUUG, the “polymerase ribozyme fitness (log ratio)” value was -0.452. For GACCAAUCUGCCCUCAGAGCUCGAGAACAUCUUCGGAUGCAGAGGAGGCCGGCUUCGGUGGCGCGAUAGCGCCAACGUCCUCAACCUCCAAUGCAUCCCACCACAUGAUGAUGCCUGAAGAGCCAUGGUUUUUUG, the “polymerase ribozyme fitness (log ratio)” value was -0.974. In the case of GACCAAUCUGCCCUCAGAGCUCGAGAACAUCUUCGGAUGCAGAGGAGGCCGGCUUCUGUGGCGCGAUAACGCCAACGUCCUCAACCUCCAAUGCAUCCCACCACAUGAUGAUGCCUGAAAAGCCUUAGUUUUUUG, the “polymerase ribozyme fitness (log ratio)” value is reported as -3.95. With GACCAAUCUGCCCUCAGAGCUCGAGAACAUCUUCGGAUGCAGAGGAGGCGGGCUUCGGUGGCGCGAUAGCGCCAACGUCCUCAACCUCCAAUCCAUCCCACCACAUGAAGAUGCCUCAAGAGCCUUGGUUUUUUG the “polymerase ribozyme fitness (log ratio)” value was -6.26. With GACCAAUCUGCCCUCAGAGCUCGAGAACAUCUUCGGAUGCAGAGGAGGCCGGCUUCGGUGGCGCGAUAGCGCCAACGUCCUCAACCUCUAAUGCAUCCCACCACAUGAUGAUGCCUGAAGAGCCUUGGUUUUUUG the “polymerase ribozyme fitness (log ratio)” value was -1.06.
